The Kd is the free concentration of one partner at which half of the binding sites on the other are occupied at equilibrium, for simple one-to-one binding. What is called stoichiometry N is a count of units in the complex or per binding partner.

One assay addresses HOOK1 (Homo sapiens) (UniProt Q9UJC3). Conditions: cited from earlier work.
For another assay, the target named is HOOK3 (Homo sapiens) (UniProt Q86VS8). Conditions: cited from earlier work.
Assay [1] addresses WT_(ZIP+)/WT_(ZIP−), BICD2_(1–98) heterodimer with C-terminal ZIP+/ZIP− leucine zipper (mouse (cDNA, methods); called human in the results and in the legend of Fig. 1) (UniProt Q921C5). The experiment in a line: ITC; LIC1_(433–458) peptide titrated into ZIP+/ZIP− BICD2 heterodimers in the cell; 20 mM HEPES (pH 7.5), 100 mM NaCl, 0.5 mM TCEP; temperature given in the figure. In general terms: In ITC the heat of successive injections is recorded.

For assay [2], the target named is Y46D_(ZIP+)/WT_(ZIP−), half-functional BICD2_(1–98) heterodimer with C-terminal ZIP+/ZIP− leucine zipper (mouse (cDNA, methods); called human in the results and in the legend of Fig. 1) (UniProt Q921C5). The description is as above.

Chain of LIC1_(433–458), amphipathic helix of the dynein light intermediate chain-1 (Q9Y6G9 433-458): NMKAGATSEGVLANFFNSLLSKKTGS
Chain of LIC1 (Q9Y6G9 whole entry): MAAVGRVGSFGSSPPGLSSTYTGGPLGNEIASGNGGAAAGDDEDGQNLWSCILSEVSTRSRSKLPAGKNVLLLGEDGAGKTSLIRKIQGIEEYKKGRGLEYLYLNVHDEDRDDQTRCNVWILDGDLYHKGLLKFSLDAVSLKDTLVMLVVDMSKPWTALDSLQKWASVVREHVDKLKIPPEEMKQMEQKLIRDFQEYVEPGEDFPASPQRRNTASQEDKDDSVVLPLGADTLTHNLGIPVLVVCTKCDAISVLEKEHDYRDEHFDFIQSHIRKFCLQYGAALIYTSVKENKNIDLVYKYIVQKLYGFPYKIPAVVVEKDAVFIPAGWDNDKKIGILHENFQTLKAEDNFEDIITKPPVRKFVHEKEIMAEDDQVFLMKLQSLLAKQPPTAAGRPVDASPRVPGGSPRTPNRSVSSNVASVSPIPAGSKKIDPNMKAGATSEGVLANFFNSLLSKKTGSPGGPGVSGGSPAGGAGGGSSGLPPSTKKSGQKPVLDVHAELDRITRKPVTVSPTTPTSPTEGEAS
Chain of HOOK3 (Homo sapiens) (Q86VS8 whole entry): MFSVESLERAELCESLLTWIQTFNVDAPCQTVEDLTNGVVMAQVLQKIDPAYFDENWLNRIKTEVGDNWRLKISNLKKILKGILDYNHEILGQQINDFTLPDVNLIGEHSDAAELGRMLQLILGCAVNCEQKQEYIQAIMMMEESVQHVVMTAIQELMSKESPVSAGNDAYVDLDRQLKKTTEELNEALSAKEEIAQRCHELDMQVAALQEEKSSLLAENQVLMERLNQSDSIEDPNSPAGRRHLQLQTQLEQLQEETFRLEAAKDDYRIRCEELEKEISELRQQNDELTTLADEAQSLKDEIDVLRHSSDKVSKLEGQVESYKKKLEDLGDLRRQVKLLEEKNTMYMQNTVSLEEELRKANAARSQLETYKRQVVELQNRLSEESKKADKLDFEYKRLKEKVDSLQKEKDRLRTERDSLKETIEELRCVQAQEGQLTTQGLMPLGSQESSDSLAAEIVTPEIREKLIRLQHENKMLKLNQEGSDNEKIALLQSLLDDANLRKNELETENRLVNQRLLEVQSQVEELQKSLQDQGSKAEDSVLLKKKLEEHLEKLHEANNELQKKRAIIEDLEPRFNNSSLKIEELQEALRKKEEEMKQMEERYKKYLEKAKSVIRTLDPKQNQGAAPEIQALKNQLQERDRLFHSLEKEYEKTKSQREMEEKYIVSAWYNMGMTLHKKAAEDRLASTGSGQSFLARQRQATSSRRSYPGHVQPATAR
Chain of HOOK1 (Homo sapiens) (Q9UJC3 whole entry): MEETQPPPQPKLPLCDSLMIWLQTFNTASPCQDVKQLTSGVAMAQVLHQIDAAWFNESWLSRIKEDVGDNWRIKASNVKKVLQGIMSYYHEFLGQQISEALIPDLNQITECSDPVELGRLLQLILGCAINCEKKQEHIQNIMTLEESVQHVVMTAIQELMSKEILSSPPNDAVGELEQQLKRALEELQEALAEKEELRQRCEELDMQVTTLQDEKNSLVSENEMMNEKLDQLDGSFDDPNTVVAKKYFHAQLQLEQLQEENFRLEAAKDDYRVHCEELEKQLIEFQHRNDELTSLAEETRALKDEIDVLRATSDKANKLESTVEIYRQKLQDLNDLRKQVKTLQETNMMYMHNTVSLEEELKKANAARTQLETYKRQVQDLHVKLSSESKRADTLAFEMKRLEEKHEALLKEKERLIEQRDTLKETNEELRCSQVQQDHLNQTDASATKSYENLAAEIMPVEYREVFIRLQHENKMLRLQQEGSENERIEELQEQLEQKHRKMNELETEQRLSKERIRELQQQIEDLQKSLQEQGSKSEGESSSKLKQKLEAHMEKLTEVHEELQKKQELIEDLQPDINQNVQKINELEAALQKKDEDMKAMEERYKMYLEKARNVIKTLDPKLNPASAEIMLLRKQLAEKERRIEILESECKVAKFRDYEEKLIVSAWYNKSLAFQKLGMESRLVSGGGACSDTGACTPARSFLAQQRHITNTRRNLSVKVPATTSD

Consider LIC1 (from UniProt Q9Y6G9), for which the values for the equilibrium dissociation constant (Kd) in the assay with HOOK1 (Homo sapiens) and in the assay with HOOK3 (Homo sapiens) were 15.7 µM and 6.3 µM, respectively.

Regarding “LIC1_(433–458), amphipathic helix of the dynein light intermediate chain-1 (from UniProt Q9Y6G9 433-458) (peptide)”, the dissociation constant Kd in assay [1] is 6.8 µM; in assay [2], 6.2 µM. In addition, the stoichiometry N in assay [1] was determined as 2; in assay [2] it was 1.1.

These data come from paper PMC7655957.
